Reference: paper PMC7015241
Where two headings read alike, the source gives them in different places.

Columns and labels:
[1] = biological target: F-actin (Oryctolagus cuniculus) (UniProt P68135); settings: cited from earlier work
[2] = biological target: F-actin (Oryctolagus cuniculus) (UniProt P68135); settings: cited from earlier work; remark: listed apart in the source
[3] = biological target: Filamentous actin (F-actin) (rabbit) (UniProt P68135); experiment: co-sedimentation; 1–30 μM polymerized actin incubated with 10 μM MYPN Ig3, Ig4 or Ig3–4 domain for 1 h in 100 μL, 150 000×g for 30 min; SDS-PAGE of supernatants and pellets, densitometry; F-buffer (Tris, KCl, MgCl2, DTT, pH 8.0)

For PALLD Ig3-4 (from UniProt Q9ET54), the Kd [1] is given as 9 µM.

In the case of PALLD Ig3 (from UniProt Q9ET54), the Kd [2] is listed as 70 µM.

“Myopalladin (MYPN) Ig3 domain (domain or fragment)” showed a Kd [3] of 7.6 µM.
